What was measured:
[1] = molecular target: T1, Sym-1788 (RSV-G type B central region peptide 145-201) (Respiratory syncytial virus type B); experiment: ELISA, antibody titrated on biotinylated peptide on avidin plates (FIG. 3)
[2] = molecular target: T2, Sym-1706 (RSV G central conserved domain (CCD) peptide, type A 145-184) (Respiratory syncytial virus type A); experiment: as above
[3] = molecular target: T3, Sym-1789 (RSV-G type B central region peptide 145-184) (Respiratory syncytial virus type B); experiment: as above
[4] = molecular target: T4, Sym-1705 (RSV-G type A central region peptide 145-201) (Respiratory syncytial virus type A); experiment: as above
[5] = molecular target: T1, Sym-1788 (RSV-G type B central region …); experiment: BLI (Octet Red384), biotinylated peptide on streptavidin sensor tips
[6] = molecular target: T2, Sym-1706 (RSV G central conserved …); experiment: as above
[7] = molecular target: T3, Sym-1789 (RSV-G type B central region …); experiment: as above
[8] = molecular target: T4, Sym-1705 (RSV-G type A central region …); experiment: as above
[9] = molecular target: G protein of RSV A/Long (virus, ATCC Cat. No. VR-26) (Respiratory syncytial virus A/Long) (UniProt P20895); experiment: cell-based or functional assay

Binder | IC50 [1] [µg/mL] | IC50 [2] [µg/mL] | IC50 [3] [µg/mL] | IC50 [4] [µg/mL] | binding response (Octet) [RU] [5] [RU] | binding response (Octet) [RU] [6] [RU] | binding response (Octet) [RU] [7] [RU] | binding response (Octet) [RU] [8] [RU] | Neutralization IC50 (plaque reduction assay, Vero cells) [9] [µg/mL]
CB003.1 (antibody, V domains shown) VH: QVQLVQSGPELRKPGASVTVSCKASGYTFTTYYIHWVRQAPGGGLDWMGMINTGSGVTSYAQKFQGRVAMTRDTSTSTVFMELSSLRFEDTALYYCARMYSGSWYPFDYWGQGALVTVSS VL: EIVLTQSPGTLSLSPGERATLSCRASQNINGNYLAWYQQKPGLAPRLLIYEASSRATGIPDRFSGSGSGTDFTLTISSLEPEDFGVYYCQQYGTSPFFTFGPGTKVDIK | 0.02 | 0.02 | 0.02 | 0.02 | 3.28 | 3.36 | 3.2 | 3.48 | –
CR9505 (an antibody based on 131-2G, comprising the heavy and light chain variable region of 131-2G) (antibody, from another filing, V domains shown) VH: EVQLQQSGPELVKPGTSVKISCKASGYSFTGFTMNWVKQSHGKNLEWFGLINPFNGNTGYNQKFKGKATLTVDKSSSTAFMELLSLTSEDSAVYYCARSGKSYDYEAWFTYWGQGTLVTVSA VL: DIVMTQTTLSLPVSLGNQASISCRSSQTIVHTNGNTYLEWYLQKPGQSPKLLIYKVSNRFSGVPDRFSGSGSGTDFILNISRVEAEDLGVYYCFQGSHVPFTFGSGTKLEIKR | – | – | – | – | – | – | – | – | 0.018
CB010.7 (antibody, V domains shown) VH: QVQLVESGGGVVQPGRSLRLSCAASGFTFNTHGMHWVRQAPGKGLEWVAVMSYDGTKKYHADSVKGRFTISRDNSKNTLYLQMNSLRVEDTAIYYCAKVGELRSFDWLLADGTAYYYYGMDVWGQGTTVTVSS VL: not shown | 0.02 | 0.02 | 0.02 | 0.02 | 1.94 | 1.74 | 2.96 | 1.25 | –

— patent publication US20160145321A1
